Source: patent publication US20260207767A1

How the values were obtained:
[1] = target: recombinant cynoPD-1 (construct not stated) (cynomolgus monkey) (UniProt B0LAJ3); test: ELISA
[2] = target: recombinant hPD-1 (construct not stated) (human) (UniProt Q15116); test: ELISA
[3] = target: cynomolgus PD-1 expressed on cells (cynomolgus monkey) (UniProt B0LAJ3); test: flow cytometry, CHO-S Cyno-PD-1
[4] = target: human PD-1 expressed on cells (human) (UniProt Q15116); test: flow cytometry, CHO-S hPD-1
Chain of human PD-1 expressed on cells (human) (Q15116 25-288): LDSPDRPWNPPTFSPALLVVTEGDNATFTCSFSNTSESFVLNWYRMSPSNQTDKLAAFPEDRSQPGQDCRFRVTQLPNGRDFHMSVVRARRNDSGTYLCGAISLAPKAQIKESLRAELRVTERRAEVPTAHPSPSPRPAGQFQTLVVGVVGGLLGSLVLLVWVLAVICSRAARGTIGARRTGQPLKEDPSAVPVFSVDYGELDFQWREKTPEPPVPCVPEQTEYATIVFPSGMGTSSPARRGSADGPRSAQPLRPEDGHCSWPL

Chain of cynomolgus PD-1 expressed on cells (cynomolgus monkey) (B0LAJ3 entry or part of it limits assumed): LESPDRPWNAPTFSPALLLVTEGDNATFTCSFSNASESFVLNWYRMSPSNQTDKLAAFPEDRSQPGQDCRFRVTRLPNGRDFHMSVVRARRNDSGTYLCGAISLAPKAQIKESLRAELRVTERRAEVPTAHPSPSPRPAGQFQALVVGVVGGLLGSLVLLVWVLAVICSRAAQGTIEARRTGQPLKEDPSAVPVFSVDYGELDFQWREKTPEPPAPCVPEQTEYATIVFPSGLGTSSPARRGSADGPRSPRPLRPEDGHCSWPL
Chain of recombinant cynoPD-1 (construct not stated) (cynomolgus monkey) (B0LAJ3 entry or part of it limits assumed): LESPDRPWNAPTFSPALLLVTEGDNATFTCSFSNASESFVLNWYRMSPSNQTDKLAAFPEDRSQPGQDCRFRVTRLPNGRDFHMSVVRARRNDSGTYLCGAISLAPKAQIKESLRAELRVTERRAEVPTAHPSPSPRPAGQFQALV
Chain of recombinant hPD-1 (construct not stated) (human) (Q15116 25-167 limits assumed): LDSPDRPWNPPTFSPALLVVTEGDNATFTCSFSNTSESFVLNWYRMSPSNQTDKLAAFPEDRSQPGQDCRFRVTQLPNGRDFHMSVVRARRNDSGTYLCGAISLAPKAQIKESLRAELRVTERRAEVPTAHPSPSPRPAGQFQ

Max OD [1]: 0.07 OD | Max OD [2]: 0.05 OD | Max MFI [3]: 206 MFI | Max MFI [4]: 184 MFI
Substance: NC.hIgG1 (antibody)
